Measured values: the RNAGym collection of RNA variant scans (doi:10.7554/elife.80360)

B1: Hammerhead Ribozyme (parent)
chain: ACCGGAUGUGCUUUCCGGUCUGAUGAGUCCGUGAGGACGAAACAG

Variants of: B1
Experiment: self-cleavage, relative activity (ratio to wild type); higher = more cleavage; co-transcriptional

Variant | self-cleavage
U24A G36U | 0.618
C11G C29U | 1.28
U14G A23G | 0.248
U28C U32C | 1
G17A C38U | 0.586
G4U G8A | 0.47
U7A C30G | 1.05
C16G U19C | 0.344
G10U C43A | 0.354
G5A U21A | 0.57
U14A G18U | 0.644
G18A G33C | 0.635
G8A U24C | 0.979
U14G C16G | 0.476
G8A U9G | 0.85
C16U C29U | 0.988
A37G A40G | 0.274
U24C A26U | 0.559
G10A A34C | 1.2
U19G U32A | 0.366
G39A G45C | 0.421
U7G G22U | 0.369
A26C A44G | 0.803
C3G G17C | 0.617

Variant | self-cleavage
U9A A37G | 1
U19C C38U | 0.36
A1G A42U | 0.425
A26G C43G | 0.31
U19C U24C | 0.682
A1U U13G | 0.812
U9G C43A | 0.271
G22A U24C | 0.311
C20U A42C | 0.323
G17A A44C | 0.513
C11U A41C | 0.337
G25A G45U | 0.45
U19C U21A | 0.416
U19C U21C | 0.251
A26U G35U | 0.491
C11A G22U | 0.246
G4U G10A | 0.588
C2U U14C | 0.474
U24A C29G | 0.79
U7G G8U | 1.36
U32A A40C | 0.622
G39U C43A | 0.312
G31U U32C | 0.69
G36A A42U | 0.333

Variant | self-cleavage
G4A G27A | 0.332
U28G G35U | 0.58
G31C G33U | 0.879
C29G A37U | 0.587
A26C G33A | 0.655
C29U G35A | 0.636
C29U G35C | 0.778
G27U C29A | 0.312
G5A U9A | 1.27
C15G G33U | 1
C15U U32G | 0.623
G33U C43G | 0.449
A6C U32A | 0.901
G4U U19C | 0.345
G4U U19A | 0.304
G18A A44U | 0.433
A40G A42G | 0.312
U14G A41C | 0.34
G8C U28G | 1.05
G27C G45C | 0.493
A1C U12C | 0.373
C3A G33C | 0.741
C29G A40C | 0.288
G8C A44G | 1.47

Variant | self-cleavage
U9G U28C | 0.673
U14G G27A | 0.757
C38U C43A | 0.414
G5A G33U | 1.44
A26U A44U | 0.443
C15A U21C | 0.373
G35A A40G | 0.37
A26U G39U | 0.296
G10C G22U | 0.335
U14G G33A | 0.518
G8A C11U | 0.744
C11U C15A | 1.02
U21G A44C | 0.285
G10C A44U | 0.57
G10U G25C | 0.375
U7G A41U | 0.342
A1G U19C | 2.02
U13C A34C | 1.02
G5C G39C | 0.312
C11G U19C | 0.532
G4C A41G | 0.255
C29G A44G | 0.82
G17A A40C | 0.347
G17A A40U | 0.354

Variant | self-cleavage
G4A G22A | 0.281
C2A C38U | 0.606
C38A A42C | 0.326
G18C A41G | 0.313
U13G A26C | 0.383
G36U G45C | 0.454
G10A C38G | 0.751
U12G G25U | 0.315
G31U G36U | 0.466
G22A C43U | 0.318
G5U C29U | 0.682
G25A A37C | 0.301
U21A U24G | 0.516
C20A A34U | 0.413
G4C A23G | 0.225
A42C A44C | 0.262
U9C C43A | 0.314
U28G C43U | 0.3
A1G G36U | 1.02
A1C G22U | 0.466
C2G G25U | 0.272
C11G A44U | 0.648
G10A C29A | 0.654
C29A A37C | 0.755

Variant | self-cleavage
G5A A40C | 0.476
U13A U19A | 0.36
G4C U7A | 1.03
G4U A26C | 0.35
A23U A42C | 0.331
U9A G35A | 0.751
U19A U32C | 0.377
C30U A34G | 0.961
U24G C38G | 0.865
G4U C38A | 0.289
A1C U13G | 0.556
U19C A41G | 0.228
C16U U28C | 0.874
U12G U13C | 0.879
C3G G4U | 0.322
U7C A40C | 0.418
U7G U13G | 1.67
C30U G39A | 0.278
G8U C15G | 0.637
C15U G39U | 0.37
U32A G36U | 0.668
A1C U32A | 0.363
A1C U32C | 0.514
G33A C38U | 0.995

Variant | self-cleavage
A6C U21G | 0.415
G8A U28A | 0.738
G4U A41U | 0.308
A23C G31C | 0.533
G17A A23U | 0.315
U12A G22A | 0.261
C11G G22U | 0.378
C3G C15U | 0.231
G10C C11U | 1.18
G8C C20U | 0.433
A1U U12G | 0.753
C3A U19A | 0.316
U19G A23G | 0.3
C11G A23C | 0.549
U13C G33C | 0.889
G5C C16A | 1.19
C16G G22C | 0.284
A6C A41C | 0.274
G5U G39U | 0.33
G33C A34G | 1.19
A6C A37C | 0.475
G18U A40U | 0.345
C2A C30U | 0.847
